From patent publication US20250339569A1 (3B PHARMACEUTICALS, published 2025)
Starred links: 1 amine or outer side, 2 acyl side, 3 side chain; linkers in the order of their positions; H or OH if unused. Positions of bridges follow the written chain, without caps; N, C: chain ends. Non-standard residues stand in square brackets, D forms with d. Groups on a side chain read outwards from the residue. Primed or numbered codes have the meaning given here. ξ: configuration not given here. *: point of attachment. DOTA = O=C(O)CN1CCN(CC(=O)O)CCN(CC(=O)*)CCN(CC(=O)O)CC1; Trp(5-Cl) = N[C@@H](Cc1c[nH]c2ccc(Cl)cc12)C(=O)O; ξTrp(5-Me) = Cc1ccc2[nH]cc(CC(N)C(=O)O)c2c1; Ttds(3) = NCCCOCCOCCOCCCNC(=O)CCC(=O)*; 1Nal = N[C@@H](Cc1cccc2ccccc12)C(=O)O; mXylylene = c1cc(C[*:1])cc(C[*:2])c1; Bta = N[C@@H](Cc1csc2ccccc12)C(=O)O; Isovaleryl = CC(C)CC(=O)*; NMeS = CN[C@@H](CO)C(=O)O; 2Quyl = not defined here; AGLU′ = not defined here; APAc = not defined here; Apr = not defined here; Bn = c1ccc(C*)cc1; Sar = CNCC(=O)O

Experiments:
[1] = target: human carbonic anhydrase 9 (CAIX) (human, UniProt Q16790 38-459); assay: FACS competition on HT-29 cells against tracer 3BP-2776; pIC50 category A = pIC50 >8.0
[2] = target: human carbonic anhydrase 9 (CAIX) (human, UniProt Q16790 38-459); assay: FACS competition on HT-29 cells, competitor tracer 3BP-2776; category A = pIC50 >8.0
Protocol: CAIX-expressing human HT-29 colorectal cancer cells (DSMZ, RRID: CVCL_0320) were cultured in McCoys's 5A modified medium (Biochrom, #F1015) including 10% fetal calf serum (FCS), 2 mM L-glutamine, 100 U/ml penicillin and 100 μg/mL streptomycin. Cells were detached with Accutase (Biolegend, #423201) and washed in FACS buffer (PBS including 1% FCS). Cells were diluted in FACS buffer to a final concentration of 500.000 cells per ml. 200 μL of the cell suspension were transferred to a u-shaped non-binding 96-well plate (Greiner) and cells were washed in ice-cold FACS buffer.
When biotinylated compounds were used an additional incubation step with 1 μg/mL APC-Streptavidin (Miltenyi; #130-106-791) in 50 μL FACS buffer for 30 minutes on ice was performed.
Cells were washed twice with ice-cold FACS buffer and analyzed in an Attune NxT flow cytometer (Thermo Fisher). Median fluorescence intensities (MFI) of the APC/Cy5-channel were calculated by Attune NxT software.

Row | pIC50 [1] [pic50] | pIC50 [2] [pic50] | Binder
1 | > 8 | – | Ac-VYCE[Sar]D[1Nal]LTWQC-NH2 (linker 3-12 via mXylylene; SMILES CC(=O)N[C@H](C(=O)N[C@@H](Cc1ccc(O)cc1)C(=O)N[C@H]1CSCc2cccc(c2)CSC[C@@H](C(N)=O)NC(=O)[C@H](CCC(N)=O)NC(=O)[C@H](Cc2c[nH]c3ccccc23)NC(=O)[C@H]([C@@H](C)O)NC(=O)[C@H](CC(C)C)NC(=O)[C@H](Cc2cccc3ccccc23)NC(=O)[C@H](CC(=O)O)NC(=O)CN(C)C(=O)[C@H](CCC(=O)O)NC1=O)C(C)C, also called Ac-Val-Tyr-[Cys(3MeBn)-Glu-Nmg-Asp-1Ni-Leu-Thr-Trp-Gln-Cys]-NH2) [3BP-3314]
2 | – | > 8 | Ac-VFCE[dP]DWLTWE([Apr-DOTA])C-NH2 (linker 3-12 via mXylylene; reading uncertain) [3BP-3874]
3 | – | > 8 | {DOTA-APAc}-VYCE[dP]DWLE(AGLU′)WSC-NH2 (linker 3-12 via mXylylene; reading uncertain) [3BP-4121]
4 | – | > 8 | {DOTA-APAc}-VYCE[dE](AGLU′)DWLTWSC-NH2 (linker 3-12 via mXylylene; reading uncertain) [3BP-4119]
5 | – | > 8 | Ac-VYCE[dP]KWL[dE]WSC-NH2 (linker 3-12 via mXylylene; lactam 6-9; SMILES CC(=O)N[C@H](C(=O)N[C@@H](Cc1ccc(O)cc1)C(=O)N[C@H]1CSCc2cccc(c2)CSC[C@@H](C(N)=O)NC(=O)[C@H](CO)NC(=O)[C@H](Cc2c[nH]c3ccccc23)NC(=O)[C@H]2CCC(=O)NCCCC[C@H](NC(=O)[C@H]3CCCN3C(=O)[C@H](CCC(=O)O)NC1=O)C(=O)N[C@@H](Cc1c[nH]c3ccccc13)C(=O)N[C@@H](CC(C)C)C(=O)N2)C(C)C) [3BP-3957]
6 | – | > 8 | Ac-VYCE[dP]KWLEWSC-NH2 (linker 3-12 via mXylylene; lactam 6-9; SMILES CC(=O)N[C@H](C(=O)N[C@@H](Cc1ccc(O)cc1)C(=O)N[C@H]1CSCc2cccc(c2)CSC[C@@H](C(N)=O)NC(=O)[C@H](CO)NC(=O)[C@H](Cc2c[nH]c3ccccc23)NC(=O)[C@@H]2CCC(=O)NCCCC[C@H](NC(=O)[C@H]3CCCN3C(=O)[C@H](CCC(=O)O)NC1=O)C(=O)N[C@@H](Cc1c[nH]c3ccccc13)C(=O)N[C@@H](CC(C)C)C(=O)N2)C(C)C) [3BP-3890]
7 | – | > 8 | {DOTA-APAc}-VYCE[dP]Y(Bn)WLTWSC-NH2 (linker 3-12 via mXylylene; not fully specified; reading uncertain) [3BP-4127]
8 | – | > 8 | {DOTA-APAc}-VYCE[dP]DC(Bn)LTWSC-NH2 (linker 3-12 via mXylylene; not fully specified; reading uncertain) [3BP-4130]
9 | – | > 8 | {DOTA-APAc}-VYCE[dP]C(Bn)WLTWSC-NH2 (linker 3-12 via mXylylene; not fully specified; reading uncertain) [3BP-4128]
10 | – | > 8 | {DOTA-APAc}-VSCE[dP]DWLTWSC-NH2 (linker 3-12 via mXylylene; reading uncertain) [3BP-4105]
11 | – | > 8 | {DOTA-APAc}-VYCQ[dP]DWLTWSC-NH2 (linker 3-12 via mXylylene; reading uncertain) [3BP-4104]
12 | – | > 8 | {DOTA-APAc}-VE(AGLU′)CE[dP]DWLTWSC-NH2 (linker 3-12 via mXylylene; reading uncertain) [3BP-4112]
13 | – | > 8 | {DOTA-APAc}-VYCE[dP]NWLTWSC-NH2 (linker 3-12 via mXylylene; reading uncertain) [3BP-4103]
14 | – | > 8 | {DOTA-APAc}-VYCE[dP]C(2Quyl)WLTWSC-NH2 (linker 3-12 via mXylylene; not fully specified; reading uncertain) [3BP-4129]
15 | – | > 8 | {DOTA-APAc}-VYCE[dP]DWLTWEC-NH2 (linker 3-12 via mXylylene; not fully specified (residue 11); reading uncertain) [3BP-4122]
16 | – | > 8 | {DOTA-APAc}-VYC[NMeS][dP]DWLTWSC-NH2 (linker 3-12 via mXylylene; reading uncertain) [3BP-4108]
17 | > 8 | – | Isovaleryl-VYCEGDWLTWQC-NH2 (linker 3-12 via mXylylene; SMILES CC(C)CC(=O)N[C@H](C(=O)N[C@@H](Cc1ccc(O)cc1)C(=O)N[C@H]1CSCc2cccc(c2)CSC[C@@H](C(N)=O)NC(=O)[C@H](CCC(N)=O)NC(=O)[C@H](Cc2c[nH]c3ccccc23)NC(=O)[C@H]([C@@H](C)O)NC(=O)[C@H](CC(C)C)NC(=O)[C@H](Cc2c[nH]c3ccccc23)NC(=O)[C@H](CC(=O)O)NC(=O)CNC(=O)[C@H](CCC(=O)O)NC1=O)C(C)C) [3BP-3111]
18 | > 8 | – | Ac-VYCE[Sar]D[Bta]LTWQC-NH2 (linker 3-12 via mXylylene; SMILES CC(=O)N[C@H](C(=O)N[C@@H](Cc1ccc(O)cc1)C(=O)N[C@H]1CSCc2cccc(c2)CSC[C@@H](C(N)=O)NC(=O)[C@H](CCC(N)=O)NC(=O)[C@H](Cc2c[nH]c3ccccc23)NC(=O)[C@H]([C@@H](C)O)NC(=O)[C@H](CC(C)C)NC(=O)[C@H](Cc2csc3ccccc23)NC(=O)[C@H](CC(=O)O)NC(=O)CN(C)C(=O)[C@H](CCC(=O)O)NC1=O)C(C)C, also called Ac-Val-Tyr-[Cys(3MeBn)-Glu-Nmg-Asp-Bta-Leu-Thr-Trp-Gln-Cys]-NH2) [3BP-3311]
19 | > 8 | – | {DOTA-Ttds(3)}-VYCE[Sar]DWLTWQC-NH2 (linker 3-12 via mXylylene, also called DOTA-Ttds-Val-Tyr-[Cys(3MeBn)-Glu-Nmg-Asp-Trp-Leu-Thr-Trp-Gln-Cys]-NH2) [3BP-3271]
20 | > 8 | – | Ac-VYCE[Sar]D[Trp(5-Cl)]LTWQC-NH2 (linker 3-12 via mXylylene; SMILES CC(=O)N[C@H](C(=O)N[C@@H](Cc1ccc(O)cc1)C(=O)N[C@H]1CSCc2cccc(c2)CSC[C@@H](C(N)=O)NC(=O)[C@H](CCC(N)=O)NC(=O)[C@H](Cc2c[nH]c3ccccc23)NC(=O)[C@H]([C@@H](C)O)NC(=O)[C@H](CC(C)C)NC(=O)[C@H](Cc2c[nH]c3ccc(Cl)cc23)NC(=O)[C@H](CC(=O)O)NC(=O)CN(C)C(=O)[C@H](CCC(=O)O)NC1=O)C(C)C, also called Ac-Val-Tyr-[Cys(3MeBn)-Glu-Nmg-Asp-5Clw-Leu-Thr-Trp-Gln-Cys]-NH2) [3BP-3289]
21 | > 8 | – | Ac-VYCE[Sar]D[ξTrp(5-Me)]LTWQC-NH2 (linker 3-12 via mXylylene; not fully specified; also: position 7 is DL-5-methyltryptophan, configuration not given here, also called Ac-Val-Tyr-[Cys(3MeBn)-Glu-Nmg-Asp-Egc-Leu-Thr-Trp-Gln-Cys]-NH2) [3BP-3290]
